The numbers were not newly measured in publication PMC6006191, which cites them from elsewhere.

The target in the data set is GLRX3 (Homo sapiens) (UniProt O76003). Kind of data set: NMR.
Chain of UniProt O76003 (O76003 2-335): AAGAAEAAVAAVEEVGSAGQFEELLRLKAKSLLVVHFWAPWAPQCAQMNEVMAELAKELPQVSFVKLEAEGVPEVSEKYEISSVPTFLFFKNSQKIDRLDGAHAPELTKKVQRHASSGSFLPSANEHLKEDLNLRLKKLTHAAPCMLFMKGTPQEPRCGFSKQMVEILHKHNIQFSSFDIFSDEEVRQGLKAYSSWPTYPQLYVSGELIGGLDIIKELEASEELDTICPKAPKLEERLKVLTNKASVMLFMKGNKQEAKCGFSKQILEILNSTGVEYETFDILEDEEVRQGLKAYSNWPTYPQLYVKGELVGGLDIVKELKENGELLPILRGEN

As a reminder, the Kd is a measure of binding affinity in units of concentration. As to BOLA2 (apo) (from UniProt Q9H3K6), the dissociation constant Kd is 25 µM.
